# Laboratory results as given in patent US20220323445A1, “REDUCING IMMUNOGENICITY TO PEGLOTICASE” (Horizon Therapeutics Ireland DAC, priority 2020, published 2022).
# Where “and” joins values, the source holds several entries; their conditions need not be identical. Equal entries are not always repeated.
# B1: pegloticase (protein)
# chain: TYKKNDEVEFVRTGYGKDMIKVLHIQRDGKYHSIKEVATTVQLTLSSKKDYLHGDNSDVIPTDTIKNTVNVLAKFKGIKSIETFAVTICEHFLSSFKHVIRAQVYVEEVPWKRFEKNGVKHVHAFIYTPTGTHFCEVEQIRNGPPVIHSGIKDLKVLKTTQSGFEGFIKDQFTTLPEVKDRCFATQVYCKWRYHQGRDVDFEATWDTVRSIVLQKFAGPYDKGEYSPSVQKTLYDIQVLTLGQVPEIEDMEISLPNIHYLNIDMSKMGLINKEEVLLPLDNPYGKITGTVKRKLSSRL
# modifications: monomethoxy PEG conjugated; Krystexxa Sequence
# notes: covalent conjugate of uricase produced by a genetically modified strain of Escherichia coli and monomethoxypoly (ethylene glycol)
# Tests used:
# [1] = system: patients with uncontrolled gout; test: Tender joint count (68-point) and swollen joint count (66-point), open-label study; type: in vivo, human; conditions: mITT
# Protocol: Tender and Swollen Joint Counts: Tender and swollen (excludes hip) joint counts were recorded at the Week −4 or week −6 (prior to the first dose of MTX) Visit during the MTX Run-in Period for the open-label and randomized studies, respectively; prior to pegloticase infusion at the Day 1 and Weeks 14, 24 and 36 Visits, or at the Day 1 and weeks 6, 14, 20, 24, 30, 36, and 44 visits during the Pegloticase+IMM Period for the open-label and randomized studies, respectively; and at the End of Pegloticase Infusions Visit (if applicable) and the Week 52/End of Study/Early Termination Visit and the Post Treatment 3 and 6 month Follow-up visits. Tender and swollen joint counts were assessed by physical examination.
# [2] = system: serum uric acid (sUA); conditions: cited from earlier work
# [3] = system: anti-pegloticase antibodies; conditions: cited from earlier work
# [4] = Day 1 vs Methotrexate Baseline, n=14
# [5] = Early Termination Visit vs Methotrexate Baseline, n=3
# [6] = Early Termination Visit vs Pegloticase Baseline, n=3
# [7] = End of Pegloticase Infusions Visit vs Methotrexate Baseline, n=2
# [8] = End of Pegloticase Infusions Visit vs Pegloticase Baseline, n=2
# [9] = End of Pegloticase Infusions Visit, n=2
# [10] = Week 14 vs Methotrexate Baseline, n=14
# [11] = Week 14 vs Pegloticase Baseline, n=14
# [12] = Week 24 vs Methotrexate Baseline, n=11
# [13] = Week 24 vs Pegloticase Baseline, n=11
# [14] = Week 36 vs Methotrexate Baseline, n=9
# [15] = Week 36 vs Pegloticase Baseline, n=9
# [16] = Week 52/ET vs Methotrexate Baseline, n=3
# [17] = Week 52/ET vs Pegloticase Baseline, n=3
molecule,measurement,setting,value
B1,"Swollen Joint Count, Observed, Mean (SD)","[1]; Day 1, n=14",5.3 (6.94)
same,"Swollen Joint Count, Observed, Median","[1]; Day 1, n=14",3.5
same,"Tender Joint Count, Observed, Mean (SD)","[1]; Day 1, n=14",9.6 (11.03)
same,"Tender Joint Count, Observed, Median","[1]; Day 1, n=14",7.0
same,"Swollen Joint Count, Change from Baseline, Mean (SD)",[1]; [4],−0.7 (5.21)
same,"Swollen Joint Count, Change from Baseline, Median",[1]; [4],0.5
same,"Tender Joint Count, Change from Baseline, Mean (SD)",[1]; [4],−1.9 (9.75)
same,"Tender Joint Count, Change from Baseline, Median",[1]; [4],0.0
same,"Swollen Joint Count, Change from Baseline, Mean (SD)",[1]; [5],−1.0 (1.73)
same,"Swollen Joint Count, Change from Baseline, Median",[1]; [5],0.0
same,"Tender Joint Count, Change from Baseline, Mean (SD)",[1]; [5],0.7 (5.13)
same,"Tender Joint Count, Change from Baseline, Median",[1]; [5],2.0
same,"Swollen Joint Count, Change from Baseline, Mean (SD)",[1]; [6],−3.3 (3.06)
same,"Swollen Joint Count, Change from Baseline, Median",[1]; [6],−4.0
same,"Tender Joint Count, Change from Baseline, Mean (SD)",[1]; [6],−2.7 (4.16)
same,"Tender Joint Count, Change from Baseline, Median",[1]; [6],−4.0
same,"Swollen Joint Count, Observed, Mean (SD)","[1]; Early Termination Visit, n=3",0.7 (0.58)
same,"Swollen Joint Count, Observed, Median","[1]; Early Termination Visit, n=3",1.0
same,"Tender Joint Count, Observed, Mean (SD)","[1]; Early Termination Visit, n=3",7.7 (8.96)
same,"Tender Joint Count, Observed, Median","[1]; Early Termination Visit, n=3",3.0
same,"Swollen Joint Count, Change from Baseline, Mean (SD)",[1]; [7],−7.0 (4.24)
same,"Swollen Joint Count, Change from Baseline, Median",[1]; [7],−7.0
same,"Tender Joint Count, Change from Baseline, Mean (SD)",[1]; [7],−12.0 (7.07)
same,"Tender Joint Count, Change from Baseline, Median",[1]; [7],−12.0
same,"Swollen Joint Count, Change from Baseline, Mean (SD)",[1]; [8],−2.0 (2.83)
same,"Swollen Joint Count, Change from Baseline, Median",[1]; [8],−2.0
same,"Tender Joint Count, Change from Baseline, Mean (SD)",[1]; [8],−3.0 (5.66)
same,"Tender Joint Count, Change from Baseline, Median",[1]; [8],−3.0
same,"Swollen Joint Count, Observed, Mean (SD)",[1]; [9],0.0 (0.00)
same,"Swollen Joint Count, Observed, Median",[1]; [9],0.0
same,"Tender Joint Count, Observed, Mean (SD)",[1]; [9],2.0 (2.83)
same,"Tender Joint Count, Observed, Median",[1]; [9],2.0
same,"Swollen Joint Count, Observed, Mean (SD)","[1]; Week 14, n=14",1.7 (3.73)
same,"Swollen Joint Count, Observed, Median","[1]; Week 14, n=14",0.0
same,"Tender Joint Count, Observed, Mean (SD)","[1]; Week 14, n=14",4.6 (6.16)
same,"Tender Joint Count, Observed, Median","[1]; Week 14, n=14",2.0
same,"Swollen Joint Count, Change from Baseline, Mean (SD)",[1]; [10],−4.3 (7.38)
same,"Swollen Joint Count, Change from Baseline, Median",[1]; [10],−2.0
same,"Tender Joint Count, Change from Baseline, Mean (SD)",[1]; [10],−7.0 (14.20)
same,"Tender Joint Count, Change from Baseline, Median",[1]; [10],0.0
same,"Swollen Joint Count, Change from Baseline, Mean (SD)",[1]; [11],−3.6 (7.04)
same,"Swollen Joint Count, Change from Baseline, Median",[1]; [11],−2.5
same,"Tender Joint Count, Change from Baseline, Mean (SD)",[1]; [11],−5.1 (8.12)
same,"Tender Joint Count, Change from Baseline, Median",[1]; [11],−5.0
same,"Swollen Joint Count, Observed, Mean (SD)","[1]; Week 24, n=11",0.5 (1.21)
same,"Swollen Joint Count, Observed, Median","[1]; Week 24, n=11",0.0
same,"Tender Joint Count, Observed, Mean (SD)","[1]; Week 24, n=11",2.6 (3.88)
same,"Tender Joint Count, Observed, Median","[1]; Week 24, n=11",0.0
same,"Swollen Joint Count, Change from Baseline, Mean (SD)",[1]; [12],−6.6 (9.03)
same,"Swollen Joint Count, Change from Baseline, Median",[1]; [12],−3.0
same,"Tender Joint Count, Change from Baseline, Mean (SD)",[1]; [12],−10.2 (14.27)
same,"Tender Joint Count, Change from Baseline, Median",[1]; [12],−4.0
same,"Swollen Joint Count, Change from Baseline, Mean (SD)",[1]; [13],−5.1 (6.66)
same,"Swollen Joint Count, Change from Baseline, Median",[1]; [13],−3.0
same,"Tender Joint Count, Change from Baseline, Mean (SD)",[1]; [13],−6.8 (8.16)
same,"Tender Joint Count, Change from Baseline, Median",[1]; [13],−4.0
same,"Swollen Joint Count, Observed, Mean (SD)","[1]; Week 36, n=9",0.1 (0.33)
same,"Swollen Joint Count, Observed, Median","[1]; Week 36, n=9",0.0
same,"Tender Joint Count, Observed, Mean (SD)","[1]; Week 36, n=9",2.1 (4.54)
same,"Tender Joint Count, Observed, Median","[1]; Week 36, n=9",0.0
same,"Swollen Joint Count, Change from Baseline, Mean (SD)",[1]; [14],−7.8 (10.81)
same,"Swollen Joint Count, Change from Baseline, Median",[1]; [14],−3.0
same,"Tender Joint Count, Change from Baseline, Mean (SD)",[1]; [14],−12.3 (14.56)
same,"Tender Joint Count, Change from Baseline, Median",[1]; [14],−7.0
same,"Swollen Joint Count, Change from Baseline, Mean (SD)",[1]; [15],−6.2 (8.15)
same,"Swollen Joint Count, Change from Baseline, Median",[1]; [15],−4.0
same,"Tender Joint Count, Change from Baseline, Mean (SD)",[1]; [15],−7.8 (8.94)
same,"Tender Joint Count, Change from Baseline, Median",[1]; [15],−4.0
same,"Swollen Joint Count, Change from Baseline, Mean (SD)",[1]; [16],−21.0 (9.64)
same,"Swollen Joint Count, Change from Baseline, Median",[1]; [16],−25.0
same,"Tender Joint Count, Change from Baseline, Mean (SD)",[1]; [16],−24.0 (21.38)
same,"Tender Joint Count, Change from Baseline, Median",[1]; [16],−17.0
same,"Swollen Joint Count, Change from Baseline, Mean (SD)",[1]; [17],−13.0 (13.00)
same,"Swollen Joint Count, Change from Baseline, Median",[1]; [17],−13.0
same,"Tender Joint Count, Change from Baseline, Mean (SD)",[1]; [17],−16.0 (17.52)
same,"Tender Joint Count, Change from Baseline, Median",[1]; [17],−15.0
same,"Swollen Joint Count, Observed, Mean (SD)","[1]; Week 52/ET, n=3",0.0 (0.00)
same,"Swollen Joint Count, Observed, Median","[1]; Week 52/ET, n=3",0.0
same,"Tender Joint Count, Observed, Mean (SD)","[1]; Week 52/ET, n=3",5.3 (3.21)
same,"Tender Joint Count, Observed, Median","[1]; Week 52/ET, n=3",4.0
same,response rate (proportion of responders) during Month 6 in phase 3 studies,"[2]; pegloticase 8 mg every 2 weeks, without MTX",43% and 43.5%
same,"proportion of patients maintaining therapeutic response at 6 months, previously reported",[2]; pegloticase alone,42%
same,patients with antibody titer exceeding 1:2430 at any time who maintained a response,[3]; 7 of 65 patients,10.8%
same,patients with antibody titers exceeding 1:2430 who developed IRs,[3]; 31 of 52 patients,60%
same,patients who never had an antibody titer above 1:2430 (comparison for maintained response),[3]; 58/65,89.2%
same,participants with high antibody titers who maintained a response (serum urate <6 mg/dL),[3]; second study,1 of 52 participants
